Here are results for ten variants from PMC7861550.

Sequences and labels used below:
B1: unnamed (parent)
chain: MDIDPYKEFGATVELLSFLPSDFFPSVRDLLDTASALYREALESPEHCSPHHTALRQAILCWGELMTLATWVGVNLEDPASRDLVVSYVNTNMGLKFRQLLWFHISCLTFGRETVIEYLVSFGVWIRTPPAYRPPNAPILSTLPETTVVRRRGRSPRRRTPSPRRRRSQSPRRRRSQSRESQC

The experiment covers variants of B1. Description: capsid assembly (Ca assem). The following applies: with partner chain of the complex shown.
Turning to chain 1 L143I, the ratio to parent worked out at 0.97.

Consider chain 1 L143A, for which the ratio to parent amounted to 1.05. Next, chain 1 L140A: 1.32; chain 1 S141T V148I V149I: 0.98. On to chain 1 S141R, for which the ratio to parent is 1.16. The result for chain 1 S141A reads 1.03; that for chain 1 S141D, 1.11; that for chain 1 E145D, 1.05. Next, chain 1 T146D T147D: 1.06; chain 1 T146A T147A: 1.08.
